# Assay results: the supplement of paper PMC10065799, “High-throughput profiling of sequence recognition by tyrosine kinases and SH2 domains using bacterial peptide display” (eLife, 2023)
# Key:
# EPHB1 = EPHB1 (UniProt P54762); assay: phosphorylation enrichment, bacterial display (enrichment ratio); higher = better substrate or ligand; peptides without Tyr show the background
# FGFR1 = FGFR1 (UniProt P11362); assay: as above
# Fer (mouse) = assay: as above
# Hck = Hck (UniProt P08631); assay: as above
# Sequence of Hck (P08631 whole entry, looked up): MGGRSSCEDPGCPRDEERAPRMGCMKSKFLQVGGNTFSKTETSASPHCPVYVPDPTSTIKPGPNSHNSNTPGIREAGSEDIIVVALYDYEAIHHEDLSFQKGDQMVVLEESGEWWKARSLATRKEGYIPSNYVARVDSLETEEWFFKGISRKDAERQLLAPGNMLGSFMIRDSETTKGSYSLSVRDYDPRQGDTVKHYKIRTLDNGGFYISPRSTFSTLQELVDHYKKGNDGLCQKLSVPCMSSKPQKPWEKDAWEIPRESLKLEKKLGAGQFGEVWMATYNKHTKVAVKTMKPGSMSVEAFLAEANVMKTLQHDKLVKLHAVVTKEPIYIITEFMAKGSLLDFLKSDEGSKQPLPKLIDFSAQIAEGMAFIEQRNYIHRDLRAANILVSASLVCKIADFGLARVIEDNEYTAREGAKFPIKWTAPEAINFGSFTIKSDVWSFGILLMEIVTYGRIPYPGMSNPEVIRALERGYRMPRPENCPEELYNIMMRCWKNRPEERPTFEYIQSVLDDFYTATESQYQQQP
# Fyn = Fyn (UniProt P06241); assay: as above
# Sequence of Fyn (P06241 whole entry, looked up): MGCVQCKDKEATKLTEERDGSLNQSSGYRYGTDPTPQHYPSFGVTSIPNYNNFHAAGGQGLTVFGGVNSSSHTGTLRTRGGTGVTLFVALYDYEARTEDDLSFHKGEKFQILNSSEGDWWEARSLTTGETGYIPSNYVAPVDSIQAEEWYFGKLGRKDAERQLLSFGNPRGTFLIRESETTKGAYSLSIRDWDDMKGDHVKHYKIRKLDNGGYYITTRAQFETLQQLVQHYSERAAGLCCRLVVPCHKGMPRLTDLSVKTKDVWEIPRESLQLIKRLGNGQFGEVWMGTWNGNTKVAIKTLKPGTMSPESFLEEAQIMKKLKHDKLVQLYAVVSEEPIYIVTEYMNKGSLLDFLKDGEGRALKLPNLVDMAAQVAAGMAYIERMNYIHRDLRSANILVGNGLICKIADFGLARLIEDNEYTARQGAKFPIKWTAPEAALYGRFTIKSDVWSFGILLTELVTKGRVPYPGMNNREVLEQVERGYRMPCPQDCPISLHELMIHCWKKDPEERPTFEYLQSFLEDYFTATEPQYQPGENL
# c-Src = assay: as above
# Jak2 = Jak2 (UniProt O60674); assay: as above
# FGFR3 = FGFR3 (UniProt P22607); assay: as above
# Sequence of FGFR3 (P22607 whole entry, looked up): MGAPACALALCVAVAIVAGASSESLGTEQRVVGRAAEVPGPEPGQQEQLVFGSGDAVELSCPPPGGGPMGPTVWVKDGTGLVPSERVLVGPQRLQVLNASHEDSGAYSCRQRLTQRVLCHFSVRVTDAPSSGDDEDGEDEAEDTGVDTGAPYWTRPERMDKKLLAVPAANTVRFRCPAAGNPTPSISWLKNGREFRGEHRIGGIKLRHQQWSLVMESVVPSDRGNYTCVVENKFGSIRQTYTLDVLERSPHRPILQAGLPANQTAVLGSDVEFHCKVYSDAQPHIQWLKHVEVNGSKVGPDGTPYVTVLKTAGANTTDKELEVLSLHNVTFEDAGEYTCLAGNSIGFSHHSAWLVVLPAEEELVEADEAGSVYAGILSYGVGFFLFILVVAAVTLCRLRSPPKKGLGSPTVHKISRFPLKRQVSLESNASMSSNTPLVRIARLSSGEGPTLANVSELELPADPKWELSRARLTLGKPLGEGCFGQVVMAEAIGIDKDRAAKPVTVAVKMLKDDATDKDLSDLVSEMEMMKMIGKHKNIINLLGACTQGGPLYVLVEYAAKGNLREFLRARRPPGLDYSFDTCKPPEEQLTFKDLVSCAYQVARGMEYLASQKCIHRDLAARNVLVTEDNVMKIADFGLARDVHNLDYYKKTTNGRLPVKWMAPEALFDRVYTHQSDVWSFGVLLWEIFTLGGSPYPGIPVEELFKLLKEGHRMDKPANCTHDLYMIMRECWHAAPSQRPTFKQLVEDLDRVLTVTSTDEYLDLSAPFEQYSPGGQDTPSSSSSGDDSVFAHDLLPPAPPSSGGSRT
# Fes = Fes (UniProt P07332); assay: as above
# AncSZ = assay: as above
# EPHB2 = EPHB2 (UniProt P29323); assay: as above
# MERTK = MERTK (UniProt Q12866); assay: as above
# Sequence of MERTK (Q12866 whole entry, looked up): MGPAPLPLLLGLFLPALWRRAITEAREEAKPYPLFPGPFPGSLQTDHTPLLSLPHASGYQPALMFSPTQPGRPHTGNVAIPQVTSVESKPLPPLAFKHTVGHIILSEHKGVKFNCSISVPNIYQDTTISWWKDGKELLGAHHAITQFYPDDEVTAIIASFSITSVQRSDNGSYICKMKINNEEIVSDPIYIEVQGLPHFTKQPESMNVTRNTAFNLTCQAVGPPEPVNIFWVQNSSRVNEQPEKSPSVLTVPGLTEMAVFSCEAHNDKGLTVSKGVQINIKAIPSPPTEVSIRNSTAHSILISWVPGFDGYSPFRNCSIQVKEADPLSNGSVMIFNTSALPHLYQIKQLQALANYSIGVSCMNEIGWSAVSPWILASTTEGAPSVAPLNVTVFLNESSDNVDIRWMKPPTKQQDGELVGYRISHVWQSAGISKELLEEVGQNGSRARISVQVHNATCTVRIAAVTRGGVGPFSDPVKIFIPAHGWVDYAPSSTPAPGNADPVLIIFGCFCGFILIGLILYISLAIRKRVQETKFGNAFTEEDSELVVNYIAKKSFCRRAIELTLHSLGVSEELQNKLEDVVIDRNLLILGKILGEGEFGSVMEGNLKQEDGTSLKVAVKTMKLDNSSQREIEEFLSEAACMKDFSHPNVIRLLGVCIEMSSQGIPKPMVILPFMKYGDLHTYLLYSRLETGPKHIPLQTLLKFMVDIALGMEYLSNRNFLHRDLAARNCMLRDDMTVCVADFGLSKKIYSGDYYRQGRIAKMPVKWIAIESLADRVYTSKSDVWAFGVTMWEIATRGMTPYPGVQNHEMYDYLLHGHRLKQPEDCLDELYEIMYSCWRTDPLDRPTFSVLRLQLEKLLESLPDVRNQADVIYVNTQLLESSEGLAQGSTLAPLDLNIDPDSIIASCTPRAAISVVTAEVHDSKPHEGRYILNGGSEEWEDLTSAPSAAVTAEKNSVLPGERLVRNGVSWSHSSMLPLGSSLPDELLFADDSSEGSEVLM
# c-Abl (mouse) = assay: as above
# SHP2-C SH2 = assay: SH2 binding enrichment of the phosphorylated peptide, bacterial display (enrichment ratio); higher = better substrate or ligand; peptides without Tyr show the background
# Grb2 SH2 = Grb2 SH2 (UniProt P62993); assay: as above
# Sequence of Grb2 SH2 (P62993 whole entry, looked up): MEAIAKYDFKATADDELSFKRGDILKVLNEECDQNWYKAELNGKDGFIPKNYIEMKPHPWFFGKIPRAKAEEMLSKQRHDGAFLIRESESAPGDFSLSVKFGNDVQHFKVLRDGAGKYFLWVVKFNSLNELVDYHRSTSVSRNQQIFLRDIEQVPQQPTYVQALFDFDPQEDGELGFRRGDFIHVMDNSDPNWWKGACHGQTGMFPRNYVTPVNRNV
# c-Src SH2 = assay: as above
# 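Throughout, for SH2 binding enrichment of the phosphorylated peptide, bacterial display: peptide library displayed on the E. coli surface as eCPX fusions, selected cells deep-sequenced, score is each peptide's frequency after selection divided by its frequency in the input.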
# 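Throughout, for phosphorylation enrichment, bacterial display: 11-residue human phosphosite peptides and single-mutation variants displayed on the E. coli surface, counted by deep sequencing, each peptide's frequency after selection divided by its frequency in the unselected input library; frequency after pTyr selection over input frequency; kinase dosed for 20-30% of maximal phosphorylation in three min.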
# Sequence of FGFR1 (P11362 whole entry, looked up): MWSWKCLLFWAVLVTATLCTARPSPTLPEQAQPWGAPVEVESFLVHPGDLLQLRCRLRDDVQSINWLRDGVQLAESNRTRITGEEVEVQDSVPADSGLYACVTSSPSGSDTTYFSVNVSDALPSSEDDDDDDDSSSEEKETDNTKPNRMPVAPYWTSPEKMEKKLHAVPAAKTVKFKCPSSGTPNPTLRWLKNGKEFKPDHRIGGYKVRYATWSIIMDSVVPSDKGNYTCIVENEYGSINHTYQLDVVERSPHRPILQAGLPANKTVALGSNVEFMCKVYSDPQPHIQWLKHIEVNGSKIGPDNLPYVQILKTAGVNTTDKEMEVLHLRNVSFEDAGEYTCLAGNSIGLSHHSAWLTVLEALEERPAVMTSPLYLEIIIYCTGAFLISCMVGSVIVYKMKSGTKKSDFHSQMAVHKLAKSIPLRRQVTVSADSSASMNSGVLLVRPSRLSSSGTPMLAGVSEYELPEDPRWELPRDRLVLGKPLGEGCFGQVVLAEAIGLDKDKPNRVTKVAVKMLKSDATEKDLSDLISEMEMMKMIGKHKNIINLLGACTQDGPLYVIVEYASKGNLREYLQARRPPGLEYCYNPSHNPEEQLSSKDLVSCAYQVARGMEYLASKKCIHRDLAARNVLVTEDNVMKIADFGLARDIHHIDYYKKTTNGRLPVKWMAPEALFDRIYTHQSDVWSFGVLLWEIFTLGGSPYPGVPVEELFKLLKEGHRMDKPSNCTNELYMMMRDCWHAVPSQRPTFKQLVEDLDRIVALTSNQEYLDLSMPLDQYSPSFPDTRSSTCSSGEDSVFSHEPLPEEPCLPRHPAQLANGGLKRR
# Sequence of EPHB1 (P54762 whole entry, looked up): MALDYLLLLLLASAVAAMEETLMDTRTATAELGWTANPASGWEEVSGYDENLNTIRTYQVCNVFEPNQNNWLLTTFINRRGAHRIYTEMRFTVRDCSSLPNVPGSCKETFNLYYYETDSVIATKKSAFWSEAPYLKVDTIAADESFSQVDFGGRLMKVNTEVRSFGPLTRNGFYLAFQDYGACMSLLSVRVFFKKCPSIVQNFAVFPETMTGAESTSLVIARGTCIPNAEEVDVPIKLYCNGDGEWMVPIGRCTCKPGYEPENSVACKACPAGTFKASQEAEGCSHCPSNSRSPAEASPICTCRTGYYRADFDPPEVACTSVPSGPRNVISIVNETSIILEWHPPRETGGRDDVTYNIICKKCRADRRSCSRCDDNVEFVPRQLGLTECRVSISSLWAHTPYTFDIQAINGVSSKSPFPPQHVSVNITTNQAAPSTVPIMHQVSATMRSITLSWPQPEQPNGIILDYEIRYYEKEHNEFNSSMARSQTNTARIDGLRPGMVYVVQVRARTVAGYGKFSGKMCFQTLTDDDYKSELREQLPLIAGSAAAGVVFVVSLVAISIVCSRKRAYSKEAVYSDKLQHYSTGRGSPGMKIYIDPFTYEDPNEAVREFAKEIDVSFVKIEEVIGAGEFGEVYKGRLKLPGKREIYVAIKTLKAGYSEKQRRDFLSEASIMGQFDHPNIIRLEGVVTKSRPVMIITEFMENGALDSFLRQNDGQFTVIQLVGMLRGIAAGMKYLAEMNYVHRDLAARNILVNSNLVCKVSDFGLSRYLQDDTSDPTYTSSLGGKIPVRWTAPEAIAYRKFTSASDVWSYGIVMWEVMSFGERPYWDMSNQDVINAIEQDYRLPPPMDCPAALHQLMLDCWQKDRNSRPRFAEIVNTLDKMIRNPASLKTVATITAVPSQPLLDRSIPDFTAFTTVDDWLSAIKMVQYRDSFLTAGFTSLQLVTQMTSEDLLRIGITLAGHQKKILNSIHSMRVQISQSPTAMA
Sequence,phosphorylation enrichment (EPHB1),phosphorylation enrichment (FGFR1),phosphorylation enrichment (Fer (mouse)),phosphorylation enrichment (Hck),phosphorylation enrichment (Fyn),phosphorylation enrichment (c-Src),phosphorylation enrichment (Jak2),phosphorylation enrichment (FGFR3),phosphorylation enrichment (Fes),phosphorylation enrichment (AncSZ),phosphorylation enrichment (EPHB2),phosphorylation enrichment (MERTK),phosphorylation enrichment (c-Abl (mouse)),SH2 binding enrichment (SHP2-C SH2),SH2 binding enrichment (Grb2 SH2),SH2 binding enrichment (c-Src SH2)
RSHRSYSCQVM [IGLL1_Y192_R189H],0.696,0.637,0.416,0.559,0.508,0.604,0.57,0.671,0.941,0.609,0.512,0.526,0.594,0.993,1.29,1.16
RTEAQYRFIFM [PTPN11_Y511_Q506R_YF],0.52,0.512,0.546,0.398,0.312,0.445,1.14,1.03,1.23,1.37,0.576,0.413,0.765,0.633,0.665,0.409
RTEAQYRFIYM [PTPN11_Y511_Q506R],0.724,0.683,0.794,0.635,0.423,0.754,1.5,1.1,1.72,1.2,0.9,0.691,1.44,0.642,0.702,0.392
RTTIHYNYMCN [TP53_Y234_C229R],1.48,0.892,1.25,1.11,1.16,0.649,1.57,1.6,2.24,1.81,1.13,0.901,1.2,0.603,0.8,0.994
RTVPLYESPRK [DDB1_Y718],20.7,0.374,16,10.5,3.13,3.79,0.833,0.577,1.77,1.31,26.6,7.82,26,1.01,0.898,0.57
RVVVPYEPPEV [TP53_Y220_S215R],0.523,0.631,0.409,0.454,0.554,0.36,0.892,0.657,0.99,1.01,0.505,0.468,0.613,0.925,0.836,1.03
SADIAYNYRHG [PAH_Y166_F161S],0.333,0.362,0.469,0.344,0.345,0.388,0.435,0.391,0.498,0.488,0.378,0.329,0.508,0.699,0.817,0.445
SAEEDYKADAK [KCNT1_Y876_M877K],0.635,0.464,0.465,0.536,0.534,0.513,1.07,0.684,1.28,1.18,0.502,0.497,0.831,0.618,0.874,0.477
SAGSSYSISSI [PAX5_Y179_G183S],0.41,0.368,0.385,0.431,0.434,0.42,0.697,0.533,0.686,0.65,0.451,0.492,0.583,0.554,0.66,0.537
SARFRYLMAEK [LDHB_Y173],0.436,0.352,0.348,0.435,0.365,0.436,0.692,0.469,0.652,0.695,0.467,0.397,0.566,0.508,0.952,0.543
SDPIVYTLENI [EMR1_Y534_I533V],0.465,0.553,2.35,0.676,4.76,4.06,1.2,0.755,1.69,1.09,0.523,0.546,0.873,0.709,0.768,0.563
SEHLTYLEFKS [RASGRP1_Y215],1.02,0.729,0.62,5.7,6.61,5.56,1.33,1.16,1.58,1.41,0.838,0.459,1.09,0.52,0.716,0.409
SERNNYSRVAN [CWC22_Y797],0.503,0.435,0.422,0.382,0.347,0.356,0.461,0.456,0.557,0.501,0.59,0.391,0.51,5.32,0.747,1.46
SFLFRYADDSF [RAB3C_Y50],0.545,0.475,0.414,0.525,0.45,0.434,0.835,0.582,1.01,1.01,0.515,0.45,0.582,1.21,0.988,0.589
SGGLDYGMVGG [TNRC6B_Y1382_M1380L],0.527,0.446,0.476,0.76,2.21,1.88,0.636,0.537,0.722,0.765,0.973,0.43,0.523,0.724,0.775,0.489
SGIYQYSIAKF [FOXL2_Y83_I84S],4.84,1.71,13.4,5.59,4.54,4.12,1.04,1.46,1.18,1.83,2.75,9.44,7.69,11.8,0.994,2.06
SGLDSYVRSLP [TRAPPC1_Y133_R129G],0.379,0.453,0.445,0.438,0.424,0.359,0.443,0.48,0.651,0.618,0.581,0.402,0.426,0.74,0.799,0.492
